Data taken from patent US20260070975A1 (SANTA ANA BIO, published 2026).
Substitutions are numbered along the chain they refer to.

Key:
Experiment in all cases: flow cytometry on HEK293 cells expressing the target
[1] = biological target: T1, siglec 1 expressed on HEK293 cells (UniProt Q9BZZ2 20-1709, limits assumed)
T1 construct: whole, on cells; also called Siglec-6 family member
Description: (§1) Cultured HEK293 cells expressing human siglec-6, cynomolgus siglec-6, or siglec 6 family members were resuspended in FACS Blocking Buffer (PBS+10% normal human serum) for 30 minutes. Following washing, cells were incubated with siglec-6 antibodies in FACS Buffer (PBS+0.5% bovine serum albumin+0.09% sodium azide) and incubated at 4° C. for 30 minutes, washed and incubated with PE-labeled anti-human secondary antibody. Cells were incubated at 4° C. for 30 minutes in the dark. Following washing, cytofluorimetric analysis was conducted using a BD FACS Symphony A3 (BD Biosciences). Cells were sorted by scatter properties and separated for single cell analysis using side scatter width vs side scatter area. Antibody binding to cells was quantitated by measuring fluorescent emissions of excitation wavelength of 561 nm using a 586/15 nm filter. Data analysis was performed using FlowJo Software.

[2] = biological target: T2, siglec 4 expressed on HEK293 cells (UniProt P20916 20-626, limits assumed)
T2 construct: whole, on cells; also called Siglec-6 family member
T2 sequence (looked up): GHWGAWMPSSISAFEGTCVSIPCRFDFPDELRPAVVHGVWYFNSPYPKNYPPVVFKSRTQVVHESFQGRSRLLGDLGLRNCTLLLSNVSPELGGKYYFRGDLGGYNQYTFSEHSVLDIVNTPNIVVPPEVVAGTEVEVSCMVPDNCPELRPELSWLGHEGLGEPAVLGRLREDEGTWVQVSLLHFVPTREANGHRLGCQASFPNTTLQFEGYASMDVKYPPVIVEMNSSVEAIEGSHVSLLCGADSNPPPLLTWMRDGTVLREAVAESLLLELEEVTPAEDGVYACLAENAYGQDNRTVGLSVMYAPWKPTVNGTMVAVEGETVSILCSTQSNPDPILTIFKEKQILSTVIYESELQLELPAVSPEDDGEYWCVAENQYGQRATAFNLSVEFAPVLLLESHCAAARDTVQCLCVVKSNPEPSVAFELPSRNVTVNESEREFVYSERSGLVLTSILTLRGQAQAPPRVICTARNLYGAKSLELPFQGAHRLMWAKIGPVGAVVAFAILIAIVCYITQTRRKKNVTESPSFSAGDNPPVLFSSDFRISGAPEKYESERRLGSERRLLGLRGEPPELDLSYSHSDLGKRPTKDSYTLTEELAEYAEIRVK
Description: as §1

[3] = biological target: T3, siglec 5 expressed on HEK293 cells (UniProt O15389 17-551, limits assumed)
T3 construct: whole, on cells; also called Siglec-6 family member
T3 sequence (looked up): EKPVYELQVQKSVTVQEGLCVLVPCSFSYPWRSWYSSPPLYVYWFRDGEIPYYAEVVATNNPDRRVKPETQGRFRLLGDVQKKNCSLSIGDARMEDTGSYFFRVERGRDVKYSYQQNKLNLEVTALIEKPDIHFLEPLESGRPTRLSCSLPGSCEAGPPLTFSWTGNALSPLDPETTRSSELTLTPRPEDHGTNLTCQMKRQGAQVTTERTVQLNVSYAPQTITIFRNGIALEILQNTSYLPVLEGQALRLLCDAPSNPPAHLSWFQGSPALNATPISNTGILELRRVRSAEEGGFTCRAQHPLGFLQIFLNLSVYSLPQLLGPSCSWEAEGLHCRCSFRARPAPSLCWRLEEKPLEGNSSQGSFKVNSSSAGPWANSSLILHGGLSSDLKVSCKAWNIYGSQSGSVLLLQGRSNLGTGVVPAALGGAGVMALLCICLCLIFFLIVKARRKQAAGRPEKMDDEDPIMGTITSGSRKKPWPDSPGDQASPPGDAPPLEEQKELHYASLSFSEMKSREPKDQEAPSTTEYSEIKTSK
Description: as §1

[4] = biological target: T4, siglec 2 expressed on HEK293 cells (UniProt P20273 20-847, limits assumed)
T4 construct: whole, on cells; also called Siglec-6 family member
T4 sequence (looked up): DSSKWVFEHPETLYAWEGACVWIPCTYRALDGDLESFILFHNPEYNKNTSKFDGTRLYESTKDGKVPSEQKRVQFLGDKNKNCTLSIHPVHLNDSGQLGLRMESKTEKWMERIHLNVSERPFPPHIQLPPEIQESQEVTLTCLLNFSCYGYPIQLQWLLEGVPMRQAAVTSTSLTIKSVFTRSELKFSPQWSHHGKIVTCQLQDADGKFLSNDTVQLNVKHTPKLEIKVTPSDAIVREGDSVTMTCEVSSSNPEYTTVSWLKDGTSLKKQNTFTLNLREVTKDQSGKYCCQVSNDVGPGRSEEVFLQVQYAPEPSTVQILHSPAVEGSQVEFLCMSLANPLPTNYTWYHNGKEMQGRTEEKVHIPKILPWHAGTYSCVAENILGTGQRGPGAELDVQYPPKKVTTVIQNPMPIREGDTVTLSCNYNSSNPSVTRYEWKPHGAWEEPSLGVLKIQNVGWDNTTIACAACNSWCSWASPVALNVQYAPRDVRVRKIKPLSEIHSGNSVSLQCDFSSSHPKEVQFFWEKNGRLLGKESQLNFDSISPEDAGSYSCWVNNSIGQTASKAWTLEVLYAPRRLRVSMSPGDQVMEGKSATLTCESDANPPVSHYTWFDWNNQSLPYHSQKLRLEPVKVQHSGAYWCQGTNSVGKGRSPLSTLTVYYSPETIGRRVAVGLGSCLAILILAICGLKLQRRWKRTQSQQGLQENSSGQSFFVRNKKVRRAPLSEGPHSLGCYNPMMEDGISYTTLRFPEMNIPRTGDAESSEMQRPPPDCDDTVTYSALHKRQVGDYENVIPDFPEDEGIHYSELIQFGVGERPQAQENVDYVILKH
Description: as §1

[5] = biological target: T5, siglec 7 expressed on HEK293 cells (UniProt Q9Y286 19-467, limits assumed)
T5 construct: whole, on cells; also called Siglec-6 family member
Description: as §1

Measured: binding result

T5 sequence (Q9Y286 19-467 limits assumed): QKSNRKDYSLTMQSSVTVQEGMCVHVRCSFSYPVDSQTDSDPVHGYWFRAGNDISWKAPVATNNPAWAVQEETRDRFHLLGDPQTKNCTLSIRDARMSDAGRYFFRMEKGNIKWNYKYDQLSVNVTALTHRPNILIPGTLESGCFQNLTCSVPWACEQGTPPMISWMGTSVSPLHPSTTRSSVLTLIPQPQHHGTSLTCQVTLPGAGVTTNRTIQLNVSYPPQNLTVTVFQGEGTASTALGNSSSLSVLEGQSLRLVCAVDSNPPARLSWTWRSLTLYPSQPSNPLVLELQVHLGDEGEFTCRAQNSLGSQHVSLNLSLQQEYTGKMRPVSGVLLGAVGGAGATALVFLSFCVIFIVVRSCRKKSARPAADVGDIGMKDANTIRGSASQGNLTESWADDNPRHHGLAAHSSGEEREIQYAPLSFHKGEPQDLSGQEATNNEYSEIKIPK
T1 sequence (Q9BZZ2 20-1709 limits assumed): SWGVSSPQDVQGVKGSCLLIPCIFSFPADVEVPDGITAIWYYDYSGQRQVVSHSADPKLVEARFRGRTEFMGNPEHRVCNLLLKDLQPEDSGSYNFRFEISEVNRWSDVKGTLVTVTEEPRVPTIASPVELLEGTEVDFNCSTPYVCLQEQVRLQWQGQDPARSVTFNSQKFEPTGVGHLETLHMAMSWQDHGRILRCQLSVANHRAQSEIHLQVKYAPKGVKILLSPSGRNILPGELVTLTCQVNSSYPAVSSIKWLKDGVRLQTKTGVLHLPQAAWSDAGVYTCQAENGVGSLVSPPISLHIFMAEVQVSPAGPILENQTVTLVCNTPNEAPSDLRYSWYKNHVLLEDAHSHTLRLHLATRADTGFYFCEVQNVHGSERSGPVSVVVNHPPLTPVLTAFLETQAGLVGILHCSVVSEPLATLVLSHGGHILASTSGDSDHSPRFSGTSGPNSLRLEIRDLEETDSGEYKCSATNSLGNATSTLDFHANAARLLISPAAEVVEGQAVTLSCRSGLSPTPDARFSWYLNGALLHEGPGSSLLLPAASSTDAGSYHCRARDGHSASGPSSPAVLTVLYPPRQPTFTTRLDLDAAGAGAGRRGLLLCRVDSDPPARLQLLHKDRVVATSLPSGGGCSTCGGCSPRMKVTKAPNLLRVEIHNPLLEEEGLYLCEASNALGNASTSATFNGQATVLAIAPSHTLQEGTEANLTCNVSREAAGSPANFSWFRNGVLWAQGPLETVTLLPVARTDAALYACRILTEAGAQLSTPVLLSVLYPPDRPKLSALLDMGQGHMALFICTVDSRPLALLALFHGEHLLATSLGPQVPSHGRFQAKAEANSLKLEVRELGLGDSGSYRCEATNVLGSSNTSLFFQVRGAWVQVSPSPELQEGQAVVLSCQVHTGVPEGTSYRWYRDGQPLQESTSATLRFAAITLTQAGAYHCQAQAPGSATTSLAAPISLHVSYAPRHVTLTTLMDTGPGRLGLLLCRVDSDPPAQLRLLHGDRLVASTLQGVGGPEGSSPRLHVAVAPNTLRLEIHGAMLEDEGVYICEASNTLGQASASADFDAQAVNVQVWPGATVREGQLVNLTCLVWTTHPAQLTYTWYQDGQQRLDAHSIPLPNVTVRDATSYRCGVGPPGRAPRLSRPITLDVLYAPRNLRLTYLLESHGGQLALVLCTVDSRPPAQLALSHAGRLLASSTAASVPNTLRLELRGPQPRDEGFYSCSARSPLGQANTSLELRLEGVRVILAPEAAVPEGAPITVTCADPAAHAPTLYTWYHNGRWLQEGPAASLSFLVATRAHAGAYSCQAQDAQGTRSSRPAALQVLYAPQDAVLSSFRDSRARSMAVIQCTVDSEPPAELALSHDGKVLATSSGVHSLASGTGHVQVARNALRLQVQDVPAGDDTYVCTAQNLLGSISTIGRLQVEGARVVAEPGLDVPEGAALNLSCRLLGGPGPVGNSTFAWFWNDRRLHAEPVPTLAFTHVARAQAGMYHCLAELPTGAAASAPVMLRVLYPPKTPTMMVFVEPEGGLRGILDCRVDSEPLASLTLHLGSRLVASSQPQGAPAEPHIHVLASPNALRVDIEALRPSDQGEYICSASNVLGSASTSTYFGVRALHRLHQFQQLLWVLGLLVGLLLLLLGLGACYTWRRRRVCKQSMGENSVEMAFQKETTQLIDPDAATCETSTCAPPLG

B1: hRND-2 (antibody, human IgG1, kappa, V domains shown)
VH: QVQLVQSGAEVKKPGASVKVSCKASGYAFTSYWMHWVRQAPGQRLEWMGEIYPTNGGTTYAQKFQGRVTMTVDKSTSTAYMELSRLRSDDTAVYYCTIEDFYAMDYWGQGTTVTVSS
VL: DIVMTQTPLSLSVTPGQPASISCKSSQSLLDSDGKTSLNWLLQKPGQSPQRLIYLVSKLDSGVPDRFSGSGSGTDFTLKISRVEAEDVGVYYCWQGTHFPYTFGQGTKLEIKR
notes: also called humanized RND-2; hRND-H2 / hRND-L3; copies: 2 + 2
no binding: all assays above

B2: hRND-5 (antibody, human IgG1, kappa, V domains shown)
VH: B1 VH with V20L, M48I, A61N, Q62E, Q65K, G66R, V68A, M70L
VL: B1 VL
notes: also called humanized RND-5; hRND-H3b / hRND-L3; copies: 2 + 2
no binding: all assays above

B3: hRND-4 (antibody, human IgG1, kappa, V domains shown)
VH: B1 VH with A61N, Q62E, Q65K, G66R
VL: B1 VL
notes: also called humanized RND-4; hRND-H2b / hRND-L3; copies: 2 + 2
no binding: all assays above

B4: hRND-3 (antibody, human IgG1, kappa, V domains shown)
VH: B1 VH with V20L, M48I, V68A, M70L
VL: B1 VL
notes: also called humanized RND-3; hRND-H3 / hRND-L3; copies: 2 + 2
no binding: all assays above
